Paper PMC4705658

Tests used:
[1] = target: T1, Gbp2 RRM12 (Saccharomyces cerevisiae, UniProt P25555 122-316); test: fluorescence anisotropy
T1 sequence: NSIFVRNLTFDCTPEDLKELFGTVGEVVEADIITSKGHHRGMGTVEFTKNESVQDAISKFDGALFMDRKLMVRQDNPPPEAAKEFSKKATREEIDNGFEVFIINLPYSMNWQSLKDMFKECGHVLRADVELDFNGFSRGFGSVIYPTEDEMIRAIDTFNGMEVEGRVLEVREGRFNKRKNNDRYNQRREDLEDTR

[2] = target: T2, Gbp2 RRM3 (Saccharomyces cerevisiae, UniProt P25555 330-427); test: fluorescence anisotropy
T2 sequence: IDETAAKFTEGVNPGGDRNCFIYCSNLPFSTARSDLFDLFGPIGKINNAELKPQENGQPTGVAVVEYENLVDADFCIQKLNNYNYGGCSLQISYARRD

[3] = target: T3, Gbp2 RRM123 (Saccharomyces cerevisiae, UniProt P25555 122-427); test: fluorescence anisotropy
T3 sequence: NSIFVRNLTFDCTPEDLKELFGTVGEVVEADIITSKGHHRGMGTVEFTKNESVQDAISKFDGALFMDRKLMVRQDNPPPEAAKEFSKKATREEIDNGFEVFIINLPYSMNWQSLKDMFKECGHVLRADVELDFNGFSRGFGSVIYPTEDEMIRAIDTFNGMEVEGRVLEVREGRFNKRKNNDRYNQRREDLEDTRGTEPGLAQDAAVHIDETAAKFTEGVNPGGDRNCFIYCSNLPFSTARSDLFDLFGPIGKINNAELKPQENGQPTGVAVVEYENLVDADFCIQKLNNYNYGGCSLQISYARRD

[4] = target: T4, Gbp2 RRM2 (Saccharomyces cerevisiae, UniProt P25555 219-316); test: fluorescence anisotropy
T4 sequence: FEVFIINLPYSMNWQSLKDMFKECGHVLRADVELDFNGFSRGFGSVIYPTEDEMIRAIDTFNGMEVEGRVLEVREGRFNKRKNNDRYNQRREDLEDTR

[5] = target: T5, Hrb1 RRM2 (Saccharomyces cerevisiae, UniProt P38922 261-338); test: fluorescence EMSA
T5 sequence: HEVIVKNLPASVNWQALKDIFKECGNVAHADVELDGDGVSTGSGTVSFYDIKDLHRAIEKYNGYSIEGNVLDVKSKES

[6] = target: T2, Gbp2 RRM3; test: NMR HSQC titration

## TTGGTGTT (ssDNA) [d(TTGGTGTT)]
[1]
  Kd: 24 ± 2 µM
[2]
  binding result: no binding
[3]
  Kd: 17 ± 2 µM
[4]
  Kd: 310 ± 90 µM

## GTGGTGGGTGGGTGTGTGTGGGTGTGGTGGGTGTGTGGGTGTG (ssDNA) [TG-43]
[3]
  Kd: ~0.059 µM
[5]
  binding result: no binding

## UUGGUGUU (ssRNA) [Selex RNA UUGGUGUU]
[1]
  Kd: 5.5 ± 0.7 µM
[2]
  binding result: no binding
[3]
  Kd: 3.3 ± 0.8 µM
[4]
  Kd: 54 ± 4 µM

## AAAAAAAAAAAA (ssRNA) [A12]
[6]
  binding result: no binding

## UUUUUUUUUUUU (ssRNA) [U12]
[6]
  binding result: no binding
